We go through eight substances from publication PMC6368608.

Assay [1] addresses CH106 (human). Briefly: BLI; […]; mAb (20 ug/mL in PBS) […] (AHC) […], association 400 s, […]; 1:1 model; […].
For assay [2], the target named is CH103 UCA (human). The description is as above.
Assay [3] has as its target CH103-S14P/G30S (human). The assay is described as above.
Assay [4] deals with CH103 (human). The description is as above.
Another assay deals with I4-S14P (human). The description is as above.
In another assay the target is CH103 UCA-S30G (human). Described as above.
The next assay deals with CH103 UCA-P14S (human). The assay is described as above.
Assay [5] concerns the target I4-S14P/G30S (human). The assay is described as above.
The target in assay [6] is CH103-S14P (human). The description is as above.
The target of assay [7] is CH103 UCA-S30G/S31G (human). The assay is described as above.
For assay [8], the target named is C.CH505TF SOSIP.664.v4.1 (HIV-1 (C.CH505 transmitted/founder)).
The target in assay [9] is C.CH505TF gp120 (HIV-1 clade C, CH505 transmitted/founder) (UniProt M4M0W3). Briefly: SPR.
Assay [10] has as its target CH106 (human). Kind of assay: BLI; […] (AHC) […]; 1:1 model; […]. In general terms: In BLI a coated tip is dipped into the sample, and binding shifts an interference pattern.
Assay [11] addresses CH103 UCA (human). Briefly: BLI; […] (AHC) […]; 1:1 model; […].
For a further assay, the target named is UCA-S30G (human). Kind of assay: BLI; […] (AHC) […]; 1:1 model; […].
For assay [12], the target named is CH103-S14P/G30S (human). Briefly: BLI; […] (AHC) […]; 1:1 model; […].
For another assay, the target named is UCA-P14S (human). Briefly: BLI; […] (AHC) […]; 1:1 model; […].
The target of assay [13] is CH103 (human). Kind of assay: BLI; […] (AHC) […]; 1:1 model; […].
The target in assay [14] is I4-S14P/G30S (human). Briefly: BLI; […] (AHC) […]; 1:1 model; […].
A further assay has as its target UCA-S30G/S31G (human). Briefly: BLI; […] (AHC) […]; 1:1 model; […].
Assay [15] addresses CH106 (human). Briefly: SPR; BIAcore T200; […]) 5 min at 50 µL/min, 10 min dissociation; […]; global 1:1 Langmuir fit; […]. For orientation: SPR reads the build-up and loss of mass on a sensor chip optically.
For assay [16], the target named is CH103 (human). The assay is described as above.
Assay [17] deals with I8 (CH103 lineage intermediate) (human). The description is as above.
Assay [18] concerns the target I3 (CH103 lineage intermediate) (human). The description is as above.
In assay [19] the target is CH106 (human). Briefly: SPR.
The target in assay [20] is CH103-S14P/G30S (human). Briefly: SPR.
Assay [21] concerns the target CH103 lineage intermediate I8 (human). Kind of assay: SPR.
The target of assay [22] is CH103 (human). Kind of assay: SPR.
The target of assay [23] is CH103-S14P (human). Kind of assay: SPR.
The target of assay [24] is CH103 lineage intermediate I3 (human). Briefly: SPR.

The koff is the first-order rate constant of dissociation. A higher koff goes with fast dissociation. Usually kon stands for the rate constant with which the complex forms. Low values mean slow association, high ones fast association. The Kd is the constant that tells how readily two partners part at equilibrium.

Chain of CH103 (human) (heavy, as listed by the source, chain 1 of 2): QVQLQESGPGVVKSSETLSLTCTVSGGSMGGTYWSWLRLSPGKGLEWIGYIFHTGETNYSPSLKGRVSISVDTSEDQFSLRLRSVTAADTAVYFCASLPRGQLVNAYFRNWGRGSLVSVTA
Chain of CH103 (human) (light, as listed by the source, chain 2 of 2): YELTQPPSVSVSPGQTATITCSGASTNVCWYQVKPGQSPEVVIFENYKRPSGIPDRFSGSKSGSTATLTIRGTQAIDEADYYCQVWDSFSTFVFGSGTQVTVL
Chain of CH106 (human) (heavy, as listed by the source, chain 1 of 2): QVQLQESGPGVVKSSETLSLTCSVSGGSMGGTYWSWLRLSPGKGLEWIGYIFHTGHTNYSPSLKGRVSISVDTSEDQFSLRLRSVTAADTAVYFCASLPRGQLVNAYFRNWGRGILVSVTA
Chain of CH106 (human) (light, as listed by the source, chain 2 of 2): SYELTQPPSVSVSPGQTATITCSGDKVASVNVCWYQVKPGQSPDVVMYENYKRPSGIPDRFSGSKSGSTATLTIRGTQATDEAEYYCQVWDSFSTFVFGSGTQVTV
Chain of CH103-S14P/G30S (human) (heavy, as listed by the source, chain 1 of 2): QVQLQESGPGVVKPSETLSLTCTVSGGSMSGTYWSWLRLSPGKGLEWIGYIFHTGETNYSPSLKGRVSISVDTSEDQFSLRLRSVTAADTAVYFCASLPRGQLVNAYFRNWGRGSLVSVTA
Chain of CH103-S14P (human) (heavy, as listed by the source, chain 1 of 2): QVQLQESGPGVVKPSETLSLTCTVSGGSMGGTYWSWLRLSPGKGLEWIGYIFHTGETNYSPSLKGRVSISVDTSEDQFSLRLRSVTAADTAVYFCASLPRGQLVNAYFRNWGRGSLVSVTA

For C.CH505TF.SOSIP.664.v4.1 (complex), the koff with CH106 (human) [1] was found to be 3.6e-06 s⁻¹; in the assay with CH103 UCA (human) [2] it was 0.00168 s⁻¹; in the assay with CH103-S14P/G30S (human) [3], 6.6e-05 s⁻¹; with CH103 (human) [4] it was 1.5e-05 s⁻¹; with I4-S14P (human), 0.00027 s⁻¹; with CH103 UCA-S30G (human), 0.0015 s⁻¹. For the same substance, the koff with CH103 UCA-P14S (human) came out at 0.0015 s⁻¹; in the assay with I4-S14P/G30S (human) [5] it was 0.00034 s⁻¹; in the assay with CH103-S14P (human) [6], 1.8e-05 s⁻¹; in [7], 0.0012 s⁻¹. Further, the kon with CH106 (human) [1] is 670 M⁻¹ s⁻¹; with CH103 UCA (human) [2], 1100 M⁻¹ s⁻¹; with CH103-S14P/G30S (human) [3], 450 M⁻¹ s⁻¹; with CH103 (human) [4] it was 930 M⁻¹ s⁻¹; with I4-S14P (human) it was 2460 M⁻¹ s⁻¹; in the assay with CH103 UCA-S30G (human) it was 860 M⁻¹ s⁻¹. The on-rate (kon) is 900 M⁻¹ s⁻¹ in the assay with CH103 UCA-P14S (human), 2120 M⁻¹ s⁻¹ in the assay with I4-S14P/G30S (human) [5], 890 M⁻¹ s⁻¹ with CH103-S14P (human) [6] and 1400 M⁻¹ s⁻¹ in assay [7]. The Kd in the assay with I4-S14P (human) was 109 nM; in the assay with CH103-S14P (human) [6] it was 20 nM.

Consider CH103-S14P/G30S (antibody), for which the IC80 of neutralisation of the autologous CH505TF Env-pseudovirus, TZM-bl cells (Env on the virus, not the SOSIP trimer) in [8] amounted to 15.5 µg/mL.

The substance CH103-S14P (antibody) had an IC80 of neutralisation of the autologous CH505TF Env-pseudovirus, TZM-bl cells (Env on the virus, not the SOSIP trimer) in assay [8] of 12.8 µg/mL.

As to I4-S14P/G30S (antibody), in [8], the IC50 of neutralisation of the autologous CH505TF Env-pseudovirus, TZM-bl cells (Env on the virus, not the SOSIP trimer) is 43.2 µg/mL and the IC80 of neutralisation of the autologous CH505TF Env-pseudovirus, TZM-bl cells (Env on the virus, not the SOSIP trimer) was over 50 µg/mL. In assay [9], this substance came in with a Kd of 100 nM, a koff of 0.00101 s⁻¹ and a kon of 10000 M⁻¹ s⁻¹.

As to CH103 (antibody), the IC80 of neutralisation of the autologous CH505TF Env-pseudovirus, TZM-bl cells (Env on the virus, not the SOSIP trimer) in [8] was 6.4 µg/mL.

Turning to C.CH505TF SOSIP.664.v4.1 (complex), the Kd with CH106 (human) [10] was determined as 5 nM; with CH103 UCA (human) [11], 1500 nM; with UCA-S30G (human) it was 1800 nM; in the assay with CH103-S14P/G30S (human) [12], 150 nM; with UCA-P14S (human), 1700 nM; with CH103 (human) [13] it was 16 nM. The Kd in the assay with I4-S14P/G30S (human) [14] was 160 nM; with UCA-S30G/S31G (human) it was 800 nM.

As for I4-S14P (antibody), in [8], the IC50 of neutralisation of the autologous CH505TF Env-pseudovirus, TZM-bl cells (Env on the virus, not the SOSIP trimer) came to 14.8 µg/mL and the IC80 of neutralisation of the autologous CH505TF Env-pseudovirus, TZM-bl cells (Env on the virus, not the SOSIP trimer) is over 50 µg/mL. In [9], the Kd is 40 nM, the koff came to 0.00053 s⁻¹ and the kon is 13100 M⁻¹ s⁻¹.

For the substance B.63521 D11 gp120 (domain or fragment), the Kd came out at 14.2 nM with CH106 (human) [15]; 1.1 nM with CH103 (human) [16]; 4200 nM in assay [18]; 4 nM with CH103-S14P/G30S (human) [20]; 680000 nM in assay [21]; 2.1 nM with CH103-S14P (human) [23]. For the same substance, the kon stood at 170 M⁻¹ s⁻¹ in assay [17]; 16000 M⁻¹ s⁻¹ in the assay with CH106 (human) [19]; 8210 M⁻¹ s⁻¹ in the assay with CH103-S14P/G30S (human) [20]; 15000 M⁻¹ s⁻¹ with CH103 (human) [22]; 9100 M⁻¹ s⁻¹ with CH103-S14P (human) [23]; 5300 M⁻¹ s⁻¹ in assay [24]. Further, the fold faster ka than I8 in assay [18] was over 50 fold. Also, the koff worked out at 0.000229 s⁻¹ with CH106 (human) [19]; 2.9e-05 s⁻¹ in the assay with CH103-S14P/G30S (human) [20]; 0.113 s⁻¹ in assay [21]; 2e-05 s⁻¹ with CH103 (human) [22]; 2e-05 s⁻¹ with CH103-S14P (human) [23]; 0.0225 s⁻¹ in assay [24].
